# According to patent publication US11407819B2, “Compositions and use of a fibrinogen binding motif present in EFB and COA for therapeutics and vaccines against Staphylococcus aureus” (priority 2013, dated 2022):
# Assays:
# rEfb-O binding to Fg = biological target: T1, rEfb-O binding to Fg (Homo sapiens, UniProt P02671+P02675+P02679); assay: Competition ELISA, peptide inhibition of rEfb-O binding to immobilized Fg; conditions: rEfb-O 5 nM; peptides 2 μM or increasing concentrations
# T1 construct: full-length human Fibrinogen (diluted in PBS, Enzyme research); purchased Enzyme research; host or cells: Efb probe made in E. coli
# T1 sequence (P02671 20-629 limits assumed): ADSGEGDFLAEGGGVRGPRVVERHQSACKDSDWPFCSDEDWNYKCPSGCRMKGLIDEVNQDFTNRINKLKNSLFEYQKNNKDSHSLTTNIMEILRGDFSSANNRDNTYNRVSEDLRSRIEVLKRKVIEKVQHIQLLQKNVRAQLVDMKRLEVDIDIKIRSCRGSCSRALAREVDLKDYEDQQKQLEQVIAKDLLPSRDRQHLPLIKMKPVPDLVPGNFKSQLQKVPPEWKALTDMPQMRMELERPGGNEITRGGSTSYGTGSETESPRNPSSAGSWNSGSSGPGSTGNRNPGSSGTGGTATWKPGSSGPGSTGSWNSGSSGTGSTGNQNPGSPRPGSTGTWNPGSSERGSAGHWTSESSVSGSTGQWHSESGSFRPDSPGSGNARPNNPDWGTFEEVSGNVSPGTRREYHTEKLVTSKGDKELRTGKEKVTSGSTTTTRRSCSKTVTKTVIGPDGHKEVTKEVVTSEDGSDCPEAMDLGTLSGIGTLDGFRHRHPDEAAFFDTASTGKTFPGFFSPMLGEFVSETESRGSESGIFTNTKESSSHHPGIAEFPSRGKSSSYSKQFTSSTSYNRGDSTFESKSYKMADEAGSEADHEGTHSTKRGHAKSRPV
# T1 sequence (P02675 31-491): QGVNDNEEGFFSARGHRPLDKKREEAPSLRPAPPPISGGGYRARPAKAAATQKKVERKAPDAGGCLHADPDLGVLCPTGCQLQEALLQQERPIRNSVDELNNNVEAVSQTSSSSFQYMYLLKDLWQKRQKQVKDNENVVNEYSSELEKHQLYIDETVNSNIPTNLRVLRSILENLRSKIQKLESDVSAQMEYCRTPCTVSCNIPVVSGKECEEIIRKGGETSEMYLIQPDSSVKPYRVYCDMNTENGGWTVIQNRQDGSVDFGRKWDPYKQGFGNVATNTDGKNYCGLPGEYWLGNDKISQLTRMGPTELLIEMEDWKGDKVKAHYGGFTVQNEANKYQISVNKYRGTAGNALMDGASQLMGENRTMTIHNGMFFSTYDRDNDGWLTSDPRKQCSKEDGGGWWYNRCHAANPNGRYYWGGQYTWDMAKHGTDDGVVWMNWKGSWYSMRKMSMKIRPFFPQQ
# T1 sequence (P02679 27-453): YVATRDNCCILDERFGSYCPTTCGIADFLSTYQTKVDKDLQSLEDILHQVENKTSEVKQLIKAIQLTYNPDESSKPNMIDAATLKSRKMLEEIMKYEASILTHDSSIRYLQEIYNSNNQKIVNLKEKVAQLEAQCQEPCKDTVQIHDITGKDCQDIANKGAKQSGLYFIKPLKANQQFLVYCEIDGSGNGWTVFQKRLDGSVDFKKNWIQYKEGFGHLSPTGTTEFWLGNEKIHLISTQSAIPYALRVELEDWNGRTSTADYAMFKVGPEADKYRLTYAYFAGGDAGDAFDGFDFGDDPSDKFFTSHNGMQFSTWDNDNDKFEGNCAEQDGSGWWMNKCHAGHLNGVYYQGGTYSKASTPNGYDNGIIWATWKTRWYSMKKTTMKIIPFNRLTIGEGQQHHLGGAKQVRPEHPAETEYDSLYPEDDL
# Procedure: FIG. 10A is a table of the Efb-O variant peptides were synthesized where each residue in the sequence is individually replaced with Ala (or Ser when the native a.a. is Ala). FIG. 10B is a plot of the Efb-O variant peptides inhibit rEfb-O (5 nM) binding to immobilized Fg in solid phase assay. Wells were coated with 0.25 μg/well Fg. Peptides (2 μM) were mixed with rEfb-O proteins (5 nM) and incubated in the Fg wells for 1 hour. FIG. 10C is a plot showing selected peptides inhibit rEfb-O binding to immobilized Fg. Increasing concentrations of Efb peptides were incubated with 5 nM rEfb-O in Fg-coated microtiter wells. To identify the residues in Efb-O that are important for Fg binding an Alanine scanning approach was used. A panel of Efb-O variant peptides were synthesized where each residue in the sequence is individually replaced with Ala (or Ser when the native a.a. is Ala; FIG. 10A). The individual peptides are then examined for their ability to compete with the binding of rEfb-O (5 nM) to immobilized Fg. […]
# In the case of peptide inhibition assay, various concentration of Efb or Coa peptides were mixed with a fixed concentration of Coa-GST or Efb-GST fusion proteins (5-10 nM) in TBS and the bound GST fusion proteins were detected through incubation with HRP-conjugated rabbit anti-GST polyclonal antibodies (5000× dilution). […]
# rCoa binding to Fg = biological target: T2, rCoa binding to Fg (Homo sapiens, UniProt P02671+P02675+P02679); assay: Competition ELISA, peptide inhibition of recombinant Coa binding to Fg; conditions: increasing concentrations of peptide; 4 nM GST-tagged Coa proteins
# T2 construct: full-length human Fibrinogen (diluted in PBS, Enzyme research); purchased Enzyme research; host or cells: Coa probe made in E. coli BL21
# T2 sequence (P02671 20-629 limits assumed): T1 sequence (P02671 20-629 limits assumed)
# T2 sequence (P02675 31-491): T1 sequence (P02675 31-491)
# T2 sequence (P02679 27-453): T1 sequence (P02679 27-453)
# Description: FIG. 9A illustrates a schematic presentation of recombinant Coa fragments generated in this study. Coa is depicted in its secreted form Coa (27-636) lacking the signal peptide (1-26). The N-terminus of Coa (Coa-N; Coa 27-310) constitutes D1D2 prothrombin binding domain. The C-terminus of Coa (Coa-C; Coa 311-636) includes the central region and the tandem-repeat region. The Coa-C further divides into two parts, the Coa-R is corresponding to the tandem-repeat region covering residue 506-636, and the Coa-F fragment covering residues 311-505. Recombinant protein Coa-R0 corresponds to the residues 474-506 residues. […] FIG. 9B illustrates an ELISA assays of GST-tagged Coa fragments binding to immobilized Fg. Open circle, Coa (Coa 27-636); open upright triangle, Coa-N(Coa 27-310); open inverted triangle, Coa-C(Coa 311-636); closed circle, Coa-R (Coa 506-636); closed diamond, Coa-F (Coa 311-505). […] FIG. 9D illustrates the effect of peptide Efb-O on inhibition of rCoa binding to Fg. Increasing concentration of Efb-O were incubated with 4 nM GST-tagged Coa proteins in Fg-coated microtiter wells. Control, BSA.
# […] All proteins were diluted in TBS containing 1% BSA and 0.05% TWEEN® 20 and the ELISA assays were carried out at room temperature.
substance,measurement,setting,value
sEfb-O: synthetic peptide mimicking the high affinity Fg-binding motif in Efb (Efb 68-98) (KYIKFKHDYNILEFNDGTFEYGARPQFN),inhibition of rEfb-O binding to immobilized Fg,rEfb-O binding to Fg,efficiently blocked
same,inhibition of recombinant Coa binding to Fg,rCoa binding to Fg,effectively inhibited recombinant Coa binding to Fg
